The results in this text go back to patent US20210079398A1.

Assay [1] has as its target Bradykinin peptide-oligonucleotide conjugate (Brady.O1). The assay can be described thus: BCS binding assay on a sequencing chip (Cycle 1), NGS count of the nanobody barcode on foundation Brady.O1_BCS4_Fd14 (non-specific peptide control).
Assay [2] has the same target. The assay can be described thus: BCS binding assay on a sequencing chip (Cycle 1), NGS count of the nanobody barcode on foundation Brady.O1_BCS4_Fd12 (non-specific peptide control).
For assay [3] the target is unchanged. The assay can be described thus: BCS binding assay on a sequencing chip (Cycle 1), NGS count of the nanobody barcode on foundation Brady.O1_BCS4_Fd13 (non-specific peptide control).
Assay [4] deals with Spot-Tag peptide-oligonucleotide conjugate (Spot-Tag.O1). Description: BCS binding assay on a sequencing chip (Cycle 1), NGS count of the nanobody barcode on foundation Spot-Tag.O1_BCS4_Fd27.
Assay [5] has the same target. Description: BCS binding assay on a sequencing chip (Cycle 1), NGS count of the nanobody barcode on foundation Spot-Tag.O1_BCS4_Fd28.
For assay [6] the target is unchanged. The assay can be described thus: BCS binding assay on a sequencing chip (Cycle 1), NGS count of the nanobody barcode on foundation Spot-Tag.O1_BCS4_Fd29.
For assay [7] the target is unchanged. The assay can be described thus: BCS binding assay on a sequencing chip (Cycle 1), NGS count of the nanobody barcode on foundation Spot-Tag.O1_BCS4_Fd31.
The target is the same in assay [8]. The assay can be described thus: BCS binding assay on a sequencing chip (Cycle 1), NGS count of the nanobody barcode on foundation Spot-Tag.O1_BCS4_Fd20.
For assay [9] the target is unchanged. The assay can be described thus: BCS binding assay on a sequencing chip (Cycle 1), NGS count of the nanobody barcode on foundation Spot-Tag.O1_BCS4_Fd19.

Consider Spot-tag nanobody-oligo conjugate (VHH), for which the sequencing counts of binder barcode ligated to target foundation amounted to 587 counts in [1]; 40 counts in assay [2]; 1620 counts in assay [3]; 3380 counts in [4]; 4880 counts in [5]; 10600 counts in assay [6]. Besides, the sequencing counts of binder barcode ligated to target foundation in assay [7] was determined as 6160 counts; in [8], 9650 counts; in [9] it was 6900 counts.
